The target of one test is T1, Human BCMA (human, UniProt Q02223 1-54, limits assumed).
T1 construct: also called huBCMA; B-cell maturation antigen
T1 sequence (looked up): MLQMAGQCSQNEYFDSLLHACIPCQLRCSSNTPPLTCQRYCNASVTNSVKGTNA
The test is described as follows: SPR, IgG immobilised, human BCMA analyte. The procedure:
(§1) All experiments were performed on a Bio-Rad Proteon XPR36 surface Plasmon resonance biosensor (Bio-Rad, Hercules, Calif.). […] The analysis temperature for the immobilization was 25° C. and the running buffer was HBS-T+(10 mM HEPES, 150 mM NaCl, 0.05% Tween-20, pH 7.4). Channels were activated in the analyte (horizontal) direction by injecting a mixture of 1 mM ECD and 0.25 mM NHS for 3 minutes at a flow rate of 30 μL/min. IgGs were immobilized on the activated spots by injecting them in the ligand (vertical) direction at 20 μg/mL in 10 mM Acetate pH 4.5 buffer for 1.5 minutes at […]. The activated surfaces were blocked by injecting 1M ethanolamine, pH 8.5 in the analyte direction for 3 minutes at 30 μL/min.
(§2) The analysis temperature for the BCMA binding analysis was 37° C. or 25° C. in a running buffer of HBS-T+, supplemented with 1 mg/mL BSA. A kinetic titration method was employed for the interaction analysis as described in Abdiche, et al. Human BCMA (huBCMA) or cynomolgus monkey BCMA (cyBCMA) analyte was injected in the analyte direction using a series of injections from low to high concentration. The concentrations used were 0.08 nM, 0.4 nM, 2 nM, 10 nM and 50 nM (a 5-membered series, with a 5-fold dilution factor and top concentration of 50 nM). The association time for a given analyte dilution was two minutes. Immediately after the 50 nM BCMA injection, dissociation was monitored for 2 hours.
(§3) The sensorgrams were double-referenced and fit to a 1:1 Langmuir with mass transport kinetic titration model in BIAevaluation Software version 4.1.1 (GE Lifesciences, Piscataway, N.J.).

Another test has as its target T2, Cynomolgus monkey BCMA (cynomolgus monkey).
T2 construct: Soluble analyte in SPR; also called cyBCMA; Cyno BCMA
The test is described as follows: SPR, IgG immobilised, cyno BCMA analyte. The method, then: as §1, §2, §3

Numbering of substitutions follows the chain as printed.

This is an account of results in US20160297884A1 (Pfizer, published 2016).

B1: A02_Rd4_6nM_C05 (antibody, V domains shown)
VH: EVQLLESGGGLVQPGGSLRLSCAASGFTFSSYAMNWVRQAPGKGLEWVSAIFASGGSTYYADSVKGRFTISRDNSKNTLYLQMNSLRAEDTAVYYCARYWPMTPWGQGTLVTVSS
VL: EIVLTQSPGTLSLSPGERATLSCRASQSVSSSYLAWYQQKPGQAPRLLMYDASIRATGIPDRFSGSGSGTDFTLTISRLEPEDFAVYYCQQYQRWPLTFGQGTKVEIK
notes: IgG
The term Kd denotes the constant that tells how readily two partners part at equilibrium. By koff is commonly meant a measure of how fast the partners let go of each other. As usually defined, the kon is the second-order rate constant of association. In the test with Human BCMA, B1 came in with a dissociation constant Kd of 0.099 nM, a koff of 0.000308 s⁻¹ and a kon of 3.1e+06 M⁻¹ s⁻¹. For the same molecule, in the test with Cynomolgus monkey BCMA, the dissociation constant Kd was 0.95 nM, the koff was found to be 0.00129 s⁻¹ and the association rate constant (kon) came to 1.36e+06 M⁻¹ s⁻¹.

B2: C01_Rd4_0.6nM_C03 (antibody, V domains shown)
VH: B1 VH with A33P, N35S, F52G, A53G, T58L, Y59P, T103D, P104S
VL: B1 VL with Q27C, S28D, S32T, M49I, I54S, T57P, Q93M, W95S
notes: IgG
In the test with Human BCMA, B2 gave a Kd of 0.964 nM, a dissociation rate constant (koff) of 0.015 s⁻¹ and an association rate constant (kon) of 1.55e+07 M⁻¹ s⁻¹. In the test with Cynomolgus monkey BCMA, the dissociation constant Kd stood at 2.53 nM, the dissociation rate constant (koff) is 0.0119 s⁻¹ and the on-rate constant (kon) stood at 4.72e+06 M⁻¹ s⁻¹.

B3: A02_Rd4_6nM_C26 (antibody, V domains shown)
VH: B1 VH with F52S, A53D, T103S, P104L
VL: B1 VL with S32L, R94V
notes: IgG
In the test with Human BCMA, B3 registered a Kd of 0.033 nM, an off-rate (koff) of 0.000139 s⁻¹ and a kon of 4.26e+06 M⁻¹ s⁻¹. In the test with Cynomolgus monkey BCMA, this molecule showed a Kd of 0.203 nM, a koff of 0.000448 s⁻¹ and an association rate constant (kon) of 2.21e+06 M⁻¹ s⁻¹.

B4: A02_Rd4_6nM_C16 (antibody, V domains shown)
VH: B1 VH with F52S, A53D, S54F, T103D, P104I
VL: B1 VL with S31D, S32L, R94T
notes: IgG; also called P5AC16
Regarding B4, in the test with Human BCMA, the Kd turned out to be 0.09 nM, the dissociation rate constant (koff) stood at 0.000141 s⁻¹ and the on-rate constant (kon) amounted to 1.56e+06 M⁻¹ s⁻¹. Besides, in the test with Cynomolgus monkey BCMA, binding was put at a Kd of 0.118 nM, the dissociation rate constant (koff) is 0.000158 s⁻¹ and the kon is 1.34e+06 M⁻¹ s⁻¹.

B5: A02_Rd4_6nM_C10 (antibody, V domains shown)
VH: B1 VH with F52S, A53D, T58C, Y59W
VL: B1 VL with S30E, S31M, Q93A, R94H
notes: IgG
For the molecule B5, in the test with Human BCMA, the Kd came out at 0.07 nM, the off-rate (koff) was 0.000315 s⁻¹ and the association rate constant (kon) worked out at 4.51e+06 M⁻¹ s⁻¹. In the test with Cynomolgus monkey BCMA, this molecule registered a Kd of 0.472 nM, a dissociation rate constant (koff) of 0.000898 s⁻¹ and an on-rate constant (kon) of 1.9e+06 M⁻¹ s⁻¹.

B6: C01_Rd4_0.6nM_C16 (antibody, V domains shown)
VH: B1 VH with A33P, N35S, F52G, A53G, T58L, Y59P, T103D, P104S
VL: B1 VL with S32T, M49I, I54S, T57P, Q93S, R94S
notes: IgG
With B6, in the test with Human BCMA, the affinity, expressed as Kd, was 0.407 nM; the off-rate constant (koff) was determined as 0.0063 s⁻¹; the on-rate constant (kon) stood at 1.55e+07 M⁻¹ s⁻¹. Also, in the test with Cynomolgus monkey BCMA, the equilibrium dissociation constant (Kd) stood at 0.939 nM, the dissociation rate constant (koff) was 0.00464 s⁻¹ and the kon came to 4.95e+06 M⁻¹ s⁻¹.

B7: C01_Rd4_0.6nM_C06 (antibody, V domains shown)
VH: B1 VH with A33P, N35S, F52G, A53G, T58L, Y59P, T103D, P104S
VL: B1 VL with Q27E, S28A, S30P, S32T, M49I, I54S, T57P, Q93S, R94A, W95F
notes: IgG
In the test with Human BCMA, B7 displayed a Kd of 0.847 nM, a koff of 0.0154 s⁻¹ and an on-rate constant (kon) of 1.82e+07 M⁻¹ s⁻¹. In the test with Cynomolgus monkey BCMA, this molecule yielded a Kd of 1.95 nM, a dissociation rate constant (koff) of 0.0121 s⁻¹ and a kon of 6.22e+06 M⁻¹ s⁻¹.

B8: A02_Rd4_6nM_C08 (antibody, V domains shown)
VH: B1 VH with F52L, A53D, T103S
VL: B1 VL with S31F, S32L, Q93G, R94S
notes: IgG
As to B8, in the test with Human BCMA, the Kd came out at 0.188 nM, the off-rate constant (koff) turned out to be 0.000738 s⁻¹ and the kon is 3.92e+06 M⁻¹ s⁻¹. In the test with Cynomolgus monkey BCMA, this molecule showed a Kd of 5.07 nM, a dissociation rate constant (koff) of 0.0113 s⁻¹ and a kon of 2.23e+06 M⁻¹ s⁻¹.

B9: A02_Rd4_6nM_C19 (antibody, V domains shown)
VH: B1 VH with F52S, A53D, T58R, Y59W, T103S, P104D
VL: B1 VL with S31V, S32L, Q93L, R94A
notes: IgG
B9: in the test with Human BCMA, binding was characterised by a dissociation constant (Kd) of 0.049 nM, the koff amounted to 0.000148 s⁻¹ and the kon was found to be 3e+06 M⁻¹ s⁻¹. In the test with Cynomolgus monkey BCMA, this molecule displayed a Kd of 0.26 nM, a koff of 0.000661 s⁻¹ and an on-rate (kon) of 2.54e+06 M⁻¹ s⁻¹.

B10: A02_Rd4_6nM_C22 (antibody, V domains shown)
VH: B1 VH with I51V, F52L, A53D
VL: B1 VL with R94V
notes: IgG
For B10, in the test with Human BCMA, the affinity, expressed as Kd, was 0.054 nM; the koff stood at 0.000182 s⁻¹; the kon came to 3.38e+06 M⁻¹ s⁻¹. In the test with Cynomolgus monkey BCMA, the equilibrium dissociation constant (Kd) was found to be 0.176 nM, the koff was 0.000324 s⁻¹ and the kon was found to be 1.84e+06 M⁻¹ s⁻¹.

B11: C01_Rd4_6nM_C04 (antibody, V domains shown)
VH: B1 VH with A33P, N35S, F52G, A53G, T58L, Y59P, T103D, P104S
VL: B1 VL with R24C, A25S, S32T, M49I, I54S, T57P, Q93S, R94A, W95F
notes: IgG
On to B11, for which, in the test with Human BCMA, the dissociation constant (Kd) worked out at 2.13 nM, the dissociation rate constant (koff) came out at 0.0497 s⁻¹ and the on-rate (kon) is 2.33e+07 M⁻¹ s⁻¹. In the test with Cynomolgus monkey BCMA, binding was characterised by a dissociation constant (Kd) of 5.16 nM, the koff turned out to be 0.0327 s⁻¹ and the kon turned out to be 6.34e+06 M⁻¹ s⁻¹.

B12: A02_Rd4_6nM_C07 (antibody, V domains shown)
VH: B1 VH with F52G, A53G, T58L, Y59P, T103D, P104S
VL: B1 VL with S31P, S32Y, Q93E
notes: IgG
In the test with Human BCMA, B12 showed a Kd of 0.128 nM, an off-rate (koff) of 0.000189 s⁻¹ and an on-rate constant (kon) of 1.48e+06 M⁻¹ s⁻¹. In addition, in the test with Cynomolgus monkey BCMA, the dissociation constant Kd worked out at 1.14 nM, the koff was determined as 0.000786 s⁻¹ and the association rate constant (kon) worked out at 691000 M⁻¹ s⁻¹.

B13: C01_Rd4_0.6nM_C27 (antibody, V domains shown)
VH: B1 VH with A33P, N35S, F52G, A53G, T58L, Y59P, T103D, P104S
VL: B1 VL with S32T, M49I, I54S, T57P, Q93S
notes: IgG
Turning to B13, in the test with Human BCMA, the dissociation constant Kd is 0.303 nM, the koff was 0.00374 s⁻¹ and the on-rate constant (kon) was determined as 1.23e+07 M⁻¹ s⁻¹. In the test with Cynomolgus monkey BCMA, this molecule came in with a Kd of 0.852 nM, an off-rate constant (koff) of 0.00285 s⁻¹ and an on-rate (kon) of 3.34e+06 M⁻¹ s⁻¹.

B14: A02_Rd4_6nM_C23 (antibody, V domains shown)
VH: B1 VH with F52S, A53D, T58G, Y59W, T103S, P104L
VL: B1 VL with S31V, S32E, Q93A
notes: IgG
In the test with Human BCMA, B14 showed a Kd of 0.021 nM, a koff of 0.000255 s⁻¹ and an on-rate (kon) of 1.22e+07 M⁻¹ s⁻¹. Further, in the test with Cynomolgus monkey BCMA, the Kd was determined as 0.157 nM, the koff came out at 0.000414 s⁻¹ and the on-rate (kon) turned out to be 2.63e+06 M⁻¹ s⁻¹.

B15: C01_Rd4_0.6nM_C09 (antibody, V domains shown)
VH: B1 VH with A33P, N35S, F52G, A53G, T58L, Y59P, T103D, P104S
VL: B1 VL with S32L, Y33F, M49I, I54S, T57P, Q93S, R94A
notes: IgG
In the test with Human BCMA, B15 displayed a Kd of 0.545 nM, a koff of 0.00825 s⁻¹ and a kon of 1.51e+07 M⁻¹ s⁻¹. In the test with Cynomolgus monkey BCMA, this molecule came in with a Kd of 1.77 nM, a koff of 0.00936 s⁻¹ and a kon of 5.28e+06 M⁻¹ s⁻¹.

B16: A02_Rd4_6nM_C25 (antibody, V domains shown)
VH: B1 VH with F52S, A53D, T58R, Y59W
VL: B1 VL with Q93L, R94D
notes: IgG
As to B16, in the test with Human BCMA, binding was characterised by a dissociation constant (Kd) of 0.065 nM, the koff was determined as 0.00018 s⁻¹ and the association rate constant (kon) was 2.75e+06 M⁻¹ s⁻¹. In the test with Cynomolgus monkey BCMA, this molecule returned a Kd of 0.22 nM, a dissociation rate constant (koff) of 0.00033 s⁻¹ and a kon of 1.5e+06 M⁻¹ s⁻¹.

B17: C01_Rd4_6nM_C09 (antibody, V domains shown)
VH: B1 VH with A33P, N35S, I51T, F52V, A53G, T58I, Y59G, T103D, P104S
VL: B1 VL with R24A, A25C, S32T, M49I, I54S, T57P, Q93S, R94A
notes: IgG
As to B17, in the test with Human BCMA, the dissociation constant (Kd) worked out at 0.811 nM, the koff turned out to be 0.0128 s⁻¹ and the association rate constant (kon) is 1.58e+07 M⁻¹ s⁻¹. Further, in the test with Cynomolgus monkey BCMA, the dissociation constant (Kd) worked out at 2.33 nM, the dissociation rate constant (koff) is 0.00868 s⁻¹ and the on-rate constant (kon) stood at 3.73e+06 M⁻¹ s⁻¹.
